Source: patent publication US20170226208A1 (SUPPREMOL, published 2017)
Each block holds one binder with its values, some of them ahead of it.

Experiments:
[1] = target: FcεRI at the surface of basophils (human) (UniProt P12319); assay: cell-based or functional assay
[2] = target: T1, recombinant soluble human FcγRIIB (UniProt P31994 43-217); assay: SPR; wildtype Fc format
T1 chain: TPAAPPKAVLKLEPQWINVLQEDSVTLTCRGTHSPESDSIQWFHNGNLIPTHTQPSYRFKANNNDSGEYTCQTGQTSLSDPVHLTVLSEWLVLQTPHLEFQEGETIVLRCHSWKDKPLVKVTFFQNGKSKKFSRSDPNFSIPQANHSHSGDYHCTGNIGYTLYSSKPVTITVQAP

[3] = target: T2, recombinant soluble human FcγRIIB (human, UniProt P31994 43-217); assay: antigen-specific ELISA, sFcγRIIB coated, hybridoma supernatant
T2 construct: also called sFcγRIIB; SM101
T2 sequence: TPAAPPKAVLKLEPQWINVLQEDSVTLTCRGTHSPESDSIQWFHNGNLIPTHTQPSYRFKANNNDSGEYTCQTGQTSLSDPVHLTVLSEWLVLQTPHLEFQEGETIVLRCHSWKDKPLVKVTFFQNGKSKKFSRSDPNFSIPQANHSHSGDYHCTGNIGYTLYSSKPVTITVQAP
Experimental: Fusion of the myeloma cell line with the rat immune spleen cells was performed according to standard procedures. […] MAbs from tissue culture supernatant bound to the proteins were detected with HRP conjugated mAbs against the rat IgG isotypes (TIB173 anti-IgG2a, TIB174 anti-IgG2b, TIB170 anti-IgG1 all from ATCC, R-2c anti-IgG2c homemade), thus avoiding mAbs of IgM class. […] A FACS based assay was used to screen the antibodies for specific binding of the native antigen). Additionally the antibodies were screened for non-blocking characteristics, i.e. these antibodies still allow binding of IgG or immune complexes to membrane-bound FcγRIIB.

[4] = target: T3, native FcγRIIB expressed on cells (Raji, Daudi, PBMC B cells) (human, UniProt P31994 43-310); assay: cell-based or functional assay
T3 sequence (looked up): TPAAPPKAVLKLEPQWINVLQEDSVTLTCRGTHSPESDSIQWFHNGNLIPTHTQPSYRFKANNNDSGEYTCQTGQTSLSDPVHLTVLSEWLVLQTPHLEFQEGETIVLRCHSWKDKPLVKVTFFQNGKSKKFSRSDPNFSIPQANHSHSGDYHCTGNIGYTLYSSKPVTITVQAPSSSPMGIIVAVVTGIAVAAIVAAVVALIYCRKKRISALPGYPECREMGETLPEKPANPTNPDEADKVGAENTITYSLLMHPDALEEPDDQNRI

[5] = target: T1, recombinant soluble human FcγRIIB; assay: SPR; N297A format

FcεRI at the surface of basophils (human), sequence (P12319 26-257): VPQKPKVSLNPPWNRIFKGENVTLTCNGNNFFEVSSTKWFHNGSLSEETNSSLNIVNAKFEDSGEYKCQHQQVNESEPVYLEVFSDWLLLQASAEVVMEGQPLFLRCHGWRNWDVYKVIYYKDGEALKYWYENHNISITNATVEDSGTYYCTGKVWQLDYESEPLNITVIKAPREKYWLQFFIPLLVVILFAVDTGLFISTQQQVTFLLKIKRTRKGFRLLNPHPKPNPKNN

basophil activation by pollen, CD63-positive basophils, after 2 h incubation with antibody (% positive cells) [1]: 84.4 to 88
basophil activation by pollen, CD63-positive basophils, after 6 h incubation with 0.5 µg/ml antibody [1]: 76.6%
basophil activation by pollen, CD63-positive basophils, after 6 h incubation with antibody [1]: 76 to 84%
B1: ch8A6_cε2-4-degly (bispecific antibody, part only; not given: CH1, CL and IgE Fc domains, not shown: a dimerising Fc or GST)
heavy, part: EVQLVESGGDLVQPGRSLRLSCAASGFTFSDYYMAWVRQAPKKGLEWVASISSDGSNTYYGDSVKGRFTISRDNTRSNLYLQMNSLRSEDTATYYCARPGDYWGQGVMVTVSS
light, part: NIVMTQSPTSMFISVGDRVTMNCKASQNVGTYVDWFQQKTGQSPTLLIFGASNRYTGVPDRFTGSGSGTDFTLSISNMQAEDLAVYYCLQYNYHPYTFGPGTTLELKR

koff [2]: 0.00049 s⁻¹
B2: ch8A6_wt (antibody)
chain 1: EVQLVESGGDLVQPGRSLRLSCAASGFTFSDYYMAWVRQAPKKGLEWVASISSDGSNTYYGDSVKGRFTISRDNTRSNLYLQMNSLRSEDTATYYCARPGDYWGQGVMVTVSS
chain 2: NIVMTQSPTSMFISVGDRVTMNCKASQNVGTYVDWFQQKTGQSPTLLIFGASNRYTGVPDRFTGSGSGTDFTLSISNMQAEDLAVYYCLQYNYHPYTFGPGTTLELKR

binding result [3]: binds
B3: monoclonal antibody 8A6 (rat IgG2a) (antibody, V domains shown)
VH: EVQLVESGGDLVQPGRSLRLSCAASGFTFSDYYMAWVRQAPKKGLEWVASISSDGSNTYYGDSVKGRFTISRDNTRSNLYLQMNSLRSEDTATYYCARPGDYWGQGVMVTVSS
VL: NIVMTQSPTSMFISVGDRVTMNCKASQNVGTYVDWFQQKTGQSPTLLIFGASNRYTGVPDRFTGSGSGTDFTLSISNMQAEDLAVYYCLQYNYHPYTFGPGTTLELKR
notes: Rat IgG2a from hybridoma supernatant; also called mAb 8A6; rat antibody 8A6

FcγRIIB-ITIM phosphorylation, densitometry of Western blot, Daudi cells, against untreated cells [4]: 2.8 fold
koff [5]: 0.01 s⁻¹
B4: chGB3_N297A (antibody, V domains shown)
VH: VQLQQSGPELVKPGASVKISCKASGYTFTDYYIYWVKQWPGQGLEWIGWIFPGTGNTYYNENFKDKATLTIDRSSSTAYMLLGSLTSEDSAVYFCYGPFAYWGQ
VL: RIQLTQSPSSLSASLGERVSLTCRASQEISGYLSWLQQKPDGTIKRLIYATSALDSGVPKRFSGSGSGSNYSLTISSLESEDFADYYCLQYANYPYTFGGGTKL
